Experimental data: US20240002499A1, “ANTI-CLIC1 PROTEIN ANTIBODIES AND THE DIAGNOSTIC AND THERAPEUTIC USES THEREOF” (Universita' Degli Studi di Milano, priority 2020, published 2024)
Entries after “also recorded” stand apart in the source; their conditions may differ.

What was measured:
tmCLIC1 ion channel = target: T1, tmCLIC1 ion channel (Homo sapiens, UniProt O00299); experiment: Patch clamp of CLIC1-mediated chloride current in primary human tumour cultures; type: cell-based; conditions: perforated patch clamp; glioblastoma, colorectal and prostate primary human tumour cultures; perfusion of antibody
T1 construct: endogenous in cells; host or cells: primary human glioblastoma, colorectal cancer and prostate cancer cells
Protocol: The microelectrodes were obtained from borosilicate capillaries with a diameter of 1.5 mm. Micropipettes were produced with a P-97 Brown-Flaming puller (Sutter Instruments, Novato, CA), with which the capillaries were forged to a tip diameter of 1-1.5 μm and electrical resistance of 5-8 MΩ.
The perforated patch clamp configuration was used for the whole-cell experiments, employing the antibiotic gramicidin (final concentration in pipette 5 μg/ml) which forms pores in the membrane that are only permeable to monovalent cations; in this way, the cytoplasmic concentration of the chloride ion remains unchanged throughout the experiment. The ion currents were digitised at 5 kHz and filtered at 1 kHz. Clampex 9.2 was used as the data acquisition and analysis programme.
In the time-course experiments, the potential was set on the basis of the resting potential of each cell, and a voltage step of +60 mV was applied every 5 seconds. The current measured is that observed at the end of the voltage step lasting 800 ms. When the amplitude of the current reaches a constant value, the antibody and IAA94 are added in sequence.
For the current-voltage graph, the voltage step protocol used to isolate the currents consisted of voltage variations ranging from −60 mV to +60 mV, with progressive increments of 20 mV lasting 800 ms. […]

microglial cells = experiment: Growth curves of microglial cells stimulated with β-amyloid; type: cell-based, mice; conditions: 1 μM β-amyloid, 4-day observation period
Protocol: The microglial cells used (BV-2) originated from an immortalised cell line deriving from C57BL/6 mice and commonly marketed. The culture medium used was RPMI (Thermo Fisher Scientific) with the addition of 10% FBS (Euroclone) and 1% Pen/Strep ([…], Thermo Fisher Scientific).
The cells were seeded in 24-well plates (20,000 cells/well) and counted after 24, 48, 72 and 96 hours to construct the growth curve. The cells were collected and centrifuged, and the resuspended pellet was diluted 1:1 with Trypan Blue. An automated counter (Countess II, Thermo Fisher Scientific) was used to count the cells. All data were normalized to their controls.

COLO201 [1] = experiment: COLO201 spheroids, 3D culture; type: cell-based; conditions: treated 24 to 96 hours, area normalized on initial area
Protocol: To evaluate whether tmCLIC1omab is able to penetrate across tumor spheroids, a 3D culture was performed. After the complete formation of spheroids, treatments were added and the area was measured every 24 hours up to 96 hours. The area at each time point was then normalized on the initial spheroids' area.
Spheroids were formed with hanging-drop method and then plated in rounded 96 plates coated with 5% of agar. After the complete formation of spheroids, treatments were added and the area was measured every 24 hours up to 96 hours. The area at each time point was then normalized on the initial spheroids' area.

COLO201 [2] = experiment: Trans well migration and invasion assay; type: cell-based; conditions: COLO201 WT, 72 h
Protocol: The overexpression of tmCLIC1 in the most aggressive cell lines of colorectal cancer and its pivotal role in regulation of cell cycle progression and proliferation, opens a question on the function of tmCLIC1 activity on migration and invasion potential of CRCs, that makes colorectal cancer still uncurable. We performed a Trans well assay to understand whether CLIC1 impairment could affect the migration and invasion potential of COLO201. Cells were plated after 60 hours of serum deprivation on a porous membrane, permeable only to growth factor, in contact to complete medium. The resulting chemo-attractant gradient leads the migrative cells to cross the membranes that are then stained with DAPI to visualize the nuclei. […] For invasion assays, we coated with Matrigel the porous membrane to mimic the extracellular matrix that cells must disrupt to invade tissues and mucosa.
Cells were plated after 60 hours of serum deprivation on a […] porous membrane, permeable only to growth factor, in contact to complete medium. Membranes were cut, stained with DAPI dye, and included with mowiol. Cover glasses were examined under Zeiss Examiner A1 fluorescence microscope with a Zeiss 40×/0.75 NA water immersion lens.

[3] = target: T2, peptide […] (amino acids 3-24 of the CLIC1 protein) (Homo sapiens, UniProt O00299); experiment: PEPperMAP epitope mapping on CLIC1 peptide microarrays; type: binding
T2 construct: conducted against the peptide […]; (amino acids 3-24 of the CLIC1 protein); host or cells: synthetic peptide microarray (PEPperMAP)
Protocol: PEPperMAP epitope Mapping® of the tmCLIC1omab antibody was conducted against the peptide […] (amino acids 3-24 of the CLIC1 protein) translated to linear peptides consisting of 5, 10 and 15 amino acids with peptide-peptide overlaps of 4, 9 and 14 amino acids for high-resolution epitope data. The resulting CLIC1 peptide microarrays were incubated with the antibody samples at concentrations of 1 μg/ml, 10 μg/ml, 100 μg/ml and 250 μg/ml in incubation buffer, followed by staining with secondary and control antibodies and reading with a LI-COR Odyssey Imaging System. The intensity of the points and peptide annotation were quantified with the PepSlide® Analyzer.

tmCLIC1 = target: T3, tmCLIC1 (Mus musculus, UniProt Q9Z1Q5); experiment: Immunofluorescence on live microglial cells; type: cell-based, mice; conditions: live microglial cells before and after stimulation with β-amyloid
T3 construct: endogenous in cells; host or cells: BV-2 mouse microglial cell line
Protocol: The migration of the protein to the plasma membrane gives rise to insertion of CLIC1 as transmembrane protein. The tmCLIC1omab antibody was used on live cells to specifically identify tmCLIC1. […] In live cells, the tmCLIC1omab antibody was used before (B) and after (C) stimulation with β-amyloid.
Immunofluorescence analyses were conducted to evaluate the specificity of the antibody in binding the transmembrane portion of the CLIC1 protein in WT and Clic1^−/− cells. The cells (5×10^4 cells/well) were plated on slides (ϕ12 mm). The cells were kept viable throughout the initial processes. The cells were washed three times with PBS Ca^2+/Mg^2+, and incubated for 45 minutes at room temperature in blocking solution (5% BSA in PBS). Subsequently, after removal of the blocking solution, the solution containing the antibody (3.5 μg/ml in PBS/BSA 5×) was added, and incubated for 1 h at room temperature. After three washes with PBS Ca^2+/Mg^2+, the cells were fixed with paraformaldehyde (PFA 2%) for 5 minutes at room temperature. After being washed three times with PBS Ca^2+/Mg^2+, the cells were incubated with secondary antibody Alexa Fluor 488 (Thermo Fischer Scientific) for 2 h at room temperature in the dark. […] The slides were observed through a Zeiss Examiner A1 fluorescence microscope with a Zeiss 40×/0.75 NA water immersion lens.

B1: tmCLIC1omab: IgG1 class antibody containing the heavy chain variable region SEQ ID NO:13 and the light chain variable region SEQ ID NO:14 (antibody, listed as Mus musculus, V domains shown)
VH: EVMLVESGGGLVKPGGSLKLSCAASGFAFSNYAMSWIRQIPEKRLEWVATISTGGSSTFYPDSVKGRFTISRDNAKNTLYLQMSSLRSEDTAMYYCTRHAYEAWFAYWGQGTLVTVSA
VL: QIVLTQSPALMSASPGEKVTMTCSASSSVSYMYWYQQRPRSSPKPWIYLTSTLASGVPTRFSGSGSGTSYSLTISSMEAEDAATYYCQQWNSHPLTFGSGTKLEIK
B1 was tested, and the “CLIC1-mediated chloride current (current density/voltage)” value (tmCLIC1 ion channel) was “almost totally eliminated; also recorded: depressed and almost eliminated the membrane current”, the “cell proliferation in the presence of β-amyloid” value (microglial cells) was “completely inhibited” and the “spheroids' area / proliferation of spheroids versus control” value (COLO201 [1]) was “significantly smaller compared to the control from 48 h; also recorded: impair proliferation of spheroids significantly after 48 hours”. For the same molecule, the “migration (number of migrative nuclei) versus control” value (COLO201 [2]) was “significant lower number of migrative nuclei”, the “invasion (number of invasive nuclei) versus control” value (COLO201 [2]; Matrigel-coated membrane) was “the same behavior seen for migration assay” and the “binding to the QVELFV sequence” value ([3]; linear peptide microarray) was “with lower affinity, binds the QVELFV sequence (SEQ ID NO:27) well”. For the same molecule, the “epitope sequence for which the antibody exhibits specificity” value ([3]; linear peptides of 5, 10 and 15 amino acids, antibody 1-250 μg/ml) was “QVELF” and the “recognition of tmCLIC1 on live cells” value (tmCLIC1) was “only reacts from the exterior”.
